In US20090017017A1 (SYMPHOGEN A S, published 2009):
Residue numbers refer to the chain shown, from its start.

B1: RhD204.128A03 (Fab, V domains shown)
VH: EVQLVESGGGVVQPGRSLRLSCAASGFSFSNYGMHWVRQAPGKGLEWVAVISYDGSEKYYADSVKGRFTISRDNSKKALYLQMNSLRAEDTAMYYCKNKVGATRRAVVAFDIWGQGTTVTVSS
VL: LSSELTQDPAVSVALGQTVRITCQGDSLRSYYANWYQQKPGQAPLSVIYGKNNRPSGIPDRFSGSNSGNTAFLTITGTQAEDEADYYCNSRDSSGNYRELFGGGTKLTVLG
notes: Tested as Fab in E. coli periplasmic extract (VH on human gamma 1 CH1, vector Em351); Lambda clone
B2: RhD203.179F07 (Fab, V domains shown)
VH: EVQLVESGGGVVQPGRSLRLSCAASGFTFSNYGMHWVRQAPGKGLEWVAVIWYDGSNKYYADSVKGRFTISRDNSKNTLYLQMNSLRAEDTAVYYCAREMVSYSSSWYRRYYYYVMDVWGKGTTVTVSS
VL: QSALTQPASVSGSPGQSITISCTATSSDIGAYNYVSWYQHHPGKAPKVIITDVNKRPSGVPDRFSGSKSGNTASLTISGLQPEDEAEYSCCSYAGTYSYVFGTGTKVTVLS
notes: Tested as Fab in E. coli periplasmic extract (VH on human gamma 1 CH1, vector Em351)
B3: RhD202.158E07 (Fab, V domains shown)
VH: QVQLVESGGGVVQPGRSLRLSCAASGFTFSSYGMHWVRQAPGKGLEWVAVIWFDGSNRYYGDSVKGRVTISRDNSKNTLYLRMNSLRAEDTAVYYCAREFYTRSGLWSQGYSYYMDVWGKGTTVTVSS
VL: EIVLTQSPGTLSLSPGERATLSCRASQSVSSSYLAWYQHKPGQAPRLLIYGSSNRATGIPDRFSGSGSGTDFTVTISRLEPEDFAVYYCQQYGTAPYTFGQGTKLEIKR
notes: as for B2
B4: RhD157.119D11 (Fab, V domains shown)
VH: EVQLVESGGGLVQPGGSLRLSCVASGFTFRSFDMNWVRQAPGKGLEWVSYINSRGSTIYYADSVKGRFTISRENAKNSLYLQMNSLRAEDTAVYYCARDLYGDYDPKSYYYYGMGVWGQGTTVTVSS
VL: EIVLTQSPATLSLSPGERATLSCRASQSVSSYLAWYQQKRGQAPRLLIFNASNRATGIPARFSGSGSGTDFTLTISSLEPEDFAVYYCQQRSSWPPMYTFGQGTKLEIKR
notes: as for B2
B5: RhD197.127A08 (Fab, V domains shown)
VH: QVQLVESGGGVVQPGRSLRLSCAASGFTFSNYGMHWVRQAPGKGLEWVAVIWFDGSNRDYADSVKGRFTISRDNSKKTLYLQMNSLRAEDTAVYYCATELARGRLRALEYWGQGTLVTVSS
VL: QTVVTQEPSLTVSPGGTVTLTCASSTGAVTTGYYPNWFQQKPGQAPRALIYSTSKKHSWTPARFSGSLLGGKAALTLSGVQPEDEAEYYCLLFYGGAQLGVFGGGTKLTVLG
notes: as for B1
B6: RhD207.127A11 (Fab, V domains shown)
VH: EVQLVESGGGVVQPGRSLRLSCAASGFTFSSYGMHWVRQAPGKGLEWVAVIWYDGSNKDYVDSVKGRFTISRDNSKNTLYLQMNSLRAEDTAVYYCARELAKGRLRDLDHWGQGTLVTVSS
VL: B5 VL with T2A, I50V, Y51H
notes: as for B2
B7: RhD192.119G06 (Fab, V domains shown)
VH: QVQLVESGGGLVKPGGSLRLSCAASGFTFSSYAMNWVRQAPGKGLEWVSSISGTSSYIYYADSVKGRFTIFRDNAKSSVYLQMNSLRVEDTAVYYCARDRWWGMVRRVFPTYPFDYWGQGTLVTVSS
VL: DIQLTQSPSSVSASVGDRVTITCRASQGINNLLAWYQQKPGKAPKLLIYAASNLQSGVPSRFSGSGSGTDFTLTINSLQPEDFATYYCQQANSFPLTFGGGTKVEIKR
notes: as for B2
B8: RhD195.127A07 (Fab, V domains shown)
VH: QVQLQESGPGLVKPSQTLSLTCTVSGGSISSGSYYWSWIRQPAGKGPEWIGRIYTSGSTNYNPSLKSRLTISVDTSKNQFSLKLTSVTAADTAVYYCARAPSYYDSSGYRYWYIDLWGRGTLVTVSS
VL: DIQLTQSPSSLSASVGDRVTITCRASQNINRYLNWYQHKPGRAPELLIYAASTLRRGVPSRFSGSGSGTDFTLTISSLQPEDFATYYCQQSYSRGTFGQGTKVEIKR
notes: as for B2
B9: RhD191.119E08 (Fab, V domains shown)
VH: QVQLVESGGDLVQPGGSLRLSCAASGFTFRSYEMNWVRQAPGKGLEWVSYINSRGNTKYYADSVKGRFTISRDNAKKSLYLQMSSLRAEDTAVYYCARNLFGDYDLKSYYYNAMDVWGQGTLVTVSS
VL: EIVLTQSPGTLSSSPGERATLSCRASQSVTSRYLAWYQQKHGQAPRLLIYGTSTRATGIPDRFSGGGSQTDFTLTISRLEPEDFAVYYCQHYDDSISTYIFGPGTELEIKR
notes: as for B2
B10: RhD205.160B12 (Fab, V domains shown)
VH: EVQLVETGGGLVKPGGSLRLSCAASGFTFRSYSMNWVRQAPGKGLEWVSSIGSSSTYTYSADSVKGRFTISRDNAKNSLYLQMNSLRAEDTAVYYCARGEPLNYDYIWGGYRFTIHWGQGTLVTVSS
VL: DIQLTQSPSFLSASVGDRVTITCRASHGISSYLAWYQQKPGKAPNLLIFPASTLQSGVPSRFSGSGSGTEFTLTISSLRPEDFATYYCQQLNSYSRWAFGQGTKVEVKR
notes: as for B2
B11: RhD190.119F05 (Fab, V domains shown)
VH: EVQLVETGGGVVQPGRSLRLSCAASGFSFSNYGMHWVRQAPGKGLEWVAVIWFDGSIKYYVDSVKGRFTISRDNSKNTLYLQMNSLRAEETAIYFCARENSVLVPGTIRRRYYLDYWGQGTLVTVSS
VL: DIQLTQSPSSLSASVGDRVTITCRASQSISSYLNWYQQKPGEAPKLLIYVASTLQSGAPSRFSGSGSGTDYTLTISSLQPEDSATFYCQQTYSPPYTFGQGTKLEIKR
notes: as for B2
B12: RhD200.164G10 (Fab, V domains shown)
VH: VQLVESGGGGVVQPGRSLRLSCAASGFTFSSYGMHWVRQAPGKGLEWVAVIWYDGSNKYYADSVKGRFTISRDNSKNTLYLQMNSLRAEDTAVYYCARESTLYSSSWYRRYYYYGMDVWGQGTTVTVSS
VL: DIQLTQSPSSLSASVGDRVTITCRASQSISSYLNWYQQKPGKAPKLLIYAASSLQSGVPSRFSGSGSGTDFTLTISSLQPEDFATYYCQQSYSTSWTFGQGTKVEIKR
notes: as for B2
B13: RhD201.164H12 (Fab, V domains shown)
VH: B2 VH with E1Q, N31S, G33A, W52S, M100S, V101T, S102L, V115S, K121Q
VL: EIVLTQSPATLSVSPGERATLSCRASQSVTSNLAWYQQKPGQAPRLLIYGASTRATGVPARFSGSGSGTEFSLTISSLQSEDFAVYYCQQYNNWPPIFTFGPGTKLDIKR
notes: as for B2
B14: RhD193.126G05 (Fab, V domains shown)
VH: QVQLVETGGGVVQPGRSLRLSCAASGFTFSSYGMHWVRQAPGKGLEWVAVIWYDGSNKDYADPVKGRFTISRDNSKNTLYLQMNSLRAEDTAVYYCAREIASRGYSRYLYYFDSWGQGTLVTVSS
VL: DIQMTQSPSSLSASVGDRVTITCRASQSISSYLNWYQQNPGKAPKLLIYGASNLQSGVPSRFSGSGSGTDFTLTISSLQPEDFATYYCQQSYSTLALTFGGGTKVEIKR
notes: as for B2
B15: RhD297.126E06 (Fab, V domains shown)
VH: B14 VH with T7S, S30R, S31T, P63S, Y80H, F112L, S114F
VL: B14 VL with M4L
notes: as for B2
B16: RhD194.126G10 (Fab, V domains shown)
VH: QVTLKESGPVLVKPTETLTLTCTVSGFSLSNARMGVSWIRQPPGKALEWLAHIFSNDEKSYSTSLKSRLTISKDTSKSQVVLTMTNMDPVDTATYYCARMRLTMVRGVITYYYYSMDVWGQGTTVTVSS
VL: DIQMTQSPSSLSASVGDRVTITCRASQSISTYLNWYQQKPGKAPKLLIYAASTLQSGVPSRFSGSGSGTHFTLTISSLQREDFATYYCQQTYRTPTWTFGQGTKVEIKR
notes: as for B2
B17: RhD298.126E10 (Fab, V domains shown)
VH: QVQLVESGGGVVQPGRSLRLSCAASGFTFSSYGMHWVRQAPGKGLEWVAVIWYDGSNKYYADSVKGRFTISRDNSKNTLYLQMNSVRAEDTAVYYCARDLSTQRGYSRYYYVMDVWGQGTTVTVSS
VL: B16 VL with Y49S, T53S, H70D, F83Y, T85A, T91S, R93S, T96P, W97Y, V105L
notes: as for B2
B18: RhD196.126H11 (Fab, V domains shown)
VH: B17 VH with Y59D, D99E, Y110H
VL: B16 VL with T91S, R93G
notes: as for B2
B19: RhD198.127F10 (Fab, V domains shown)
VH: B17 VH with E6Q, R16K, S31T, N74T, A88V, S101T, Y110H
VL: DIQMTQSPSSLSASVGDRVTITCRASQSIGNYLNWYQQKPGKAPKLLISAASSLQSGVPSRFSGSGSGTDFTLTISSLHREDYATYYCQQSYSTPPYTFGQGTKLEIKR
notes: as for B2

Target: T1, Rhesus D antigen (human, UniProt Q02161 2-417)
T1 construct: whole, on cells; Presented on RhD(+) erythrocytes; also called RhD; RhD antigen
T1 sequence (looked up): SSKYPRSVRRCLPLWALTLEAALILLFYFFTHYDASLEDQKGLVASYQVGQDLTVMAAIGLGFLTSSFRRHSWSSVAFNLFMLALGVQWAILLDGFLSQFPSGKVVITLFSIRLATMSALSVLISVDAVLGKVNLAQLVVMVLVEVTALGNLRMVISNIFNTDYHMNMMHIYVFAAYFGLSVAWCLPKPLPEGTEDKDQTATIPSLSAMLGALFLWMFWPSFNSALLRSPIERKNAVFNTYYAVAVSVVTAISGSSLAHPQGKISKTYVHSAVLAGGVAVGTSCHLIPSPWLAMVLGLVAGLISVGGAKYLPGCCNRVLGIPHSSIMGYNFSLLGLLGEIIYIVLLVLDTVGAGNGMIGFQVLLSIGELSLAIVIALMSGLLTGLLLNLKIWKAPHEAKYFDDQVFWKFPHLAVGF
Experiment: agglutination assay, Fab periplasmic extract on RhD(+)/RhD(-) RBC mix
Experimental: After each round of panning single colonies were picked for analysis of their binding properties to red blood cells in agglutination assays. Briefly, single colonies were inoculated into 2×YT/100 μg/mL carbenicillin/1% glucose and shaken overnight at 37° C. The next day, DeepWell plates were inoculated using 900 μl 2×YT/100 μg/mL carbenicillin/0.1% glucose and 10 μl overnight culture. The plates were shaken for two hours at 37° C., before Fab induction was performed with addition of 300 μl 2×YT/100 μg/mL carbenicillin/0.25 mM IPTG per well. The plate was shaken overnight at 30° C. The following day, the bacteria were pelleted by centrifugation (3200×g, 4° C., 10 minutes), and re-suspended in 100 μl of 0.8 M NaCl, 0.2×PBS, 8 mM EDTA, and incubated for 15 minutes on ice in order to perform a periplasmic extraction of the Fab fragments. The plate was transferred to −20° C. and finally the suspension was thawed and centrifugation was performed for 10 minutes at 4° C. and 3200×g. The periplasmic extract was used in ELISA assays for analysis of Fab content and in agglutination assays to evaluate the binding potential of the individual Fab fragments.
The agglutination assay was performed as follows: RhD(−) and RhD(+) RBC were mixed in a 1:1 ratio, and washed 3 times in PBS. After the final wash, the cell mix was re-suspended in 1% BSA in PBS at a density of 10% cells, 50 μl was added to each well of a 96-plate. Periplasmic extracts were added to the wells. As a positive control Rhesogamma P immunoglobulin (Aventis) was used according to the manufacturer's instructions. The plates were incubated for one hour at room temperature with gentle shaking. The cells were washed three times with PBS, before the secondary antibody was added (goat anti-human Fab/FITC conjugate, Sigma F5512) in a 1:100 dilution. The plates were left for agglutination for one hour at room temperature without shaking. Fab fragments positive in the agglutination assay was determined by visual inspection, and recorded by taking a picture. Quantization of the binding activity of the Fab fragments was performed by FACS analysis of the agglutination samples.

Row | Binder | binding result
1 | B1 | binds
2 | B2 | binds
3 | B3 | binds
4 | B4 | binds
5 | B5 | binds
6 | B6 | binds
7 | B7 | binds
8 | B8 | binds
9 | B9 | binds
10 | B10 | binds
11 | B11 | binds
12 | B12 | binds
13 | B13 | binds
14 | B14 | binds
15 | B15 | binds
16 | B16 | binds
17 | B17 | binds
18 | B18 | binds
19 | B19 | binds
